In article PMC4546420:

Molecular target: MBP-linker-MPR-TM (HIV-1) (UniProt P04578)
Test: SEC; Superdex-200 HR 10/300, 20 mM NaCl, 20 mM Tris-HCl pH 7.5, 0.015% beta-DDM; calibrated with protein standards; protein in beta-DDM micelles

“MBP-linker-MPR-TM (from UniProt P04578 649-705) (domain or fragment)” was tested, and the stoichiometry N was > 6.
